Data published in PMC12246476, “Enhancement of enzymatic activity by biomolecular condensates through pH buffering” (Nature Communications, 2025).

Columns and labels:
[1] = target: T1, Aryl Alcohol Oxidase (AAOx) (Pleurotus eryngii, UniProt O94219); assay: absorbance of cinnamyl aldehyde at […] nm; assay type: biochemical; settings: 5 nM enzyme, 250 µM substrate, pH 5.5-7.5, 10 mM ionic strength Tris/Bis-Tris, 30 mM NaCl
T1 construct: gene aao; N-terminal His-tag, pET-15b, E. coli BL21-GOLD; FAD added during purification; IMAC and SEC
T1 sequence (O94219 22-593): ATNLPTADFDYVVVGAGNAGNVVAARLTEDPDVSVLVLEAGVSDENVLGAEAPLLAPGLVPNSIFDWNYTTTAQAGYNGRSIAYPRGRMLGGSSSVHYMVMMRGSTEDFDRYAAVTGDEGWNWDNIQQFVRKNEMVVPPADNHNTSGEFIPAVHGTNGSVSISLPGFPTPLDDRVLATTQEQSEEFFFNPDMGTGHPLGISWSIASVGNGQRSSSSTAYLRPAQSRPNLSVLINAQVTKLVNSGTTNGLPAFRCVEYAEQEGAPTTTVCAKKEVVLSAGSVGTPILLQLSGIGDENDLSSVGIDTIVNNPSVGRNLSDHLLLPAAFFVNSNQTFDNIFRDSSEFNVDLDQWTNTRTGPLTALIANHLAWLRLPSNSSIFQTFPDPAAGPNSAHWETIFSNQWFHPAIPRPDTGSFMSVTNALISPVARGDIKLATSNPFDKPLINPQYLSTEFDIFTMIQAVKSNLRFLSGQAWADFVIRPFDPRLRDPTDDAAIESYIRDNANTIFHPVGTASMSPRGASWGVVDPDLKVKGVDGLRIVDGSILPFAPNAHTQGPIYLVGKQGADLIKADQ

[2] = substrate: CCCC(=O)Oc1ccc2c(C)cc(=O)oc2c1; assay: fluorescence of released 4-methylumbelliferone, initial rates, Michaelis-Menten fit; assay type: biochemical, Geobacillus thermocatenulatus; settings: homogeneous enzyme, 0.5 µM, 24 mM Tris, 10 mM NaCl, pH 7.5, substrate solubility kept concentrations below the KM
Text: fluorescence of released 4-methylumbelliferone, initial rates, Michaelis-Menten fit on BTL2 (Bacillus thermocatenulatus Lipase 2)

With OC/C=C/c1ccccc1 [CAlc, Cinnamyl Alcohol] as the molecule, how does the “absorbance of cinnamyl aldehyde at 310 nm” value [1] read?
The value was “measuring the rate of the oxidation reaction of CAlc to CAld catalyzed by AAOx”.

B1: BTL2 (Bacillus thermocatenulatus Lipase 2) (Geobacillus thermocatenulatus) (protein)
chain: ASPRANDAPIVLLHGFTGWGREEMLGFKYWGGVRGDIEQWLNDNGYRTYTLAVGPLSSNWDRACEAYAQLVGGTVDYGAAHAAKHGHARFGRTYPGLLPELKRGGRVHIIAHSQGGQTARMLVSLLENGSQEEREYAKAHNVSLSPLFEGGHHFVLSVTTIATPHDGTTLVNMVDFTDRFFDLQKAVLKAAAVASNVPYTSQVYDFKLDQWGLRRQPGESFDHYFERLKRSPVWTSTDTARYDLSIPGAEKLNQWVQASPNTYYLSFSTERTHRGALTGNYYPELGMNAFSAVVCAPFLGSYRNEALGIDDRWLENDGIVNTVSMNGPKRGSSDRIVPYDGTLKKGVWNDMGTCNVDHLEVIGVDPNPSFDIRAFYLRLAEQLASLRP
notes: N-terminal His-tag, pET-15b, E. coli BL21-GOLD; IMAC and SEC
How did the Km [2] turn out when B1 was run?
Its Km is 713 ± 281 µM.

What about the Vmax [2] of the same molecule?
The Vmax was 126 µM/min.

What about the kcat [2] of the same molecule?
Its kcat is 4.3 ± 1.2 s⁻¹.
